Assay: label from the status in PepcDB records

Sequence | protein production
MSHSIEQLSINTIRTLSIDAIEKANSGHPGMPMGAAPMAYTLWTQFMKHNPNNPTWFNRDRFVLSAGHGSMLLYSLLHLSGYDVTMDDLKNFRQWGSKTPGHPEYGHTAGVDATTGPLGQGIATAVGMAMAERHLAAKYNRDAYNIVDHYTYAICGDGDLMEGVSAEASSLAAHLQLGRLVVLYDSNDISLDGDLNRSFSESVEDRYKAYGWQVIRVEDGNDIEAIAKAIEEAKADEKRPTLIEVRTTIGFGSPNKSGKSASHGSPLGVEETKLTKEAYAWTAEQDFHVAEEVYENFRKTVQDVGETAQAEWNTMLGEYAQAYPELANELQAAMNGLLPEGWEQNLPTYELGSKAATRNSSGAVINAIAESVPSFFGGSADLAGSNKTYMNNEKDFTRDDYSGKNIWYGVREFAMGAAMNGIALHGGLKTYGGTFFVFSDYLRPAIRLAALMQLPVTYVFTHDSIAVGEDGPTHEPIEQLAALRAMPNVSVIRPADGNESVAAWRLALESTNKPTALVLTRQDLPTLEGAKDDTYEKVAKGAYVVSASKKETADVILLATGSEVSLAVEAQKALAVDGVDASVVSMPSMDRFEAQTAEYKESVLPKAVTKRFAIEMGATFGWHRYVGLEGDVLGIDTFGASAPGEKIMEEYGFTVENVVRKVKEML | not failed
MSHSLKDFLEACETLGTLRLIVTSSAAVLEARGKIEKLFYAELAKGKYANMHTEGFEFHLNMEKITQVKFETGEAKRGNFTTYAIRFLDEKQESALSLFLQWGKPGEYEPGQVEAWHTLKEKYGEVWEPLPVQL | not failed
MSHTKPSIAILGAGRVGSSLARSAVAAGYEVKVAGSGAVDKIALTAEILMPGAVPSTADQAVKDADIVFLAVPLHKFRSVNPATLEGKIVIDTMNHWVPVNGELEEIDQDPRSTSEIIAEFFAGSTMVKSFNHIGYHEIEQDAGTGRAIAYATDDVDAGAQVAQLIKSFGFVPLNIGALENGRILEPGQEAFGAHLNKDSRLELVNQR | failed
MSHVSYAEPPAQGWDIHCHTVFSDGTETPRTLVEQARKLGLHGVAIADHDTTAGWDEATEASEEIGLPLLLGTEITAVDEDVSVHMLAFQYDPSNEHISSMFANTRAARLRRTKRMVERLSQDFPITWDDVLAQVKEGERTTIGRPHIADALVAAGVYETRSDAFADAVSAKSKYYIPTPSPSTHEVIAAVKGAGGVVVAAHAGDPQRNRRLLSDEQLDAMIADGLDGLEVWHRGNPPEQRERLLTIAARHDLLVTGGSDWHGKGKPNGLGENLTDDDTVREILCRGVDLIGRVGSSHAA | not failed
MSIAIRIATIGALCAASAALSGCGSVGAASGALAGAATGLVTANPAVGVGVGIAVQAATDEAVNRTMKQLHQNQQDAIAKAAGSLAVGEVKPWKVKNTLPLENGEGEVRVTRAYSTALALCKEFAFSVKDGDKADWYFANACQQGTHWKWASAEPAVDRWGNLQ | failed
MSIDFYNQNASSFYASTVEVDSSSLLEQFTPYLPKGGSVLDAGCGSGRDSKRLIELGFHVDAFDASAALATLAQQLLGKPVRVATFMQFTSTLQYDGIWACASLLHVSKASLPDAFAHLASMLKSGGAFYCSFKYGQGEVERDGRSFTHCDEALLAELLTGSPLVIDKVWLTLEHHHHHH | failed
MSIEPVFILVRPQMGENIGAAARAMLNFGLGRLRIVDPRDGWPNPKAVAMASGAGRLLDHAGLFPTVAEAIRDCDYVFATTARGRELTKPVMTPERAMAHGRALTGEGRRVGILFGPERTGLENEDVALANAIVTVPVNPEFFSLNLAQCVLLLAYEWRRQHDETPPEVIDMARVDFASGLEVEKLGD | failed
MSIEVPISIPKTLIIIPAYNEEEAIADTLTRLLELKQHFTALSICVINDGSQDKTAQIVKNFPVHLINLPYNLGIGSAVQTGYKYAYENGYDIAIQFDADGQHNPDDLYKIIQPIAEGQCDMVLGSRFTEKTAYKGSISRRIGIFYFTALLKVLTKQTFMDPTSGYRAINREVITIFAHNYPKDYPEPEVLIHLKKKKLRINEISVNMQERQGGQSSITPLKSAYYMIKVSLAILMQKIVKGLEHHHHHH | failed
MSIGFYANDNFMGKSHIMDKSGKPHIGISKYPVIITQAKQQKLRKAINEARESNDILMVDFPRQMLITEHDDELVKSLGESLEEDLEYLGAIFYGKSKYVDSITGKFSLWRSNNVKVNLEHHHHHH | failed
MSIIEDNKISFVIPTINEEKTIGSVIDGIHENFPNAEIILVDTNSTDKTKEIAKSKGATVIEEPRKGYGRAYQTGIPAAKGDIIVCMDGDGTYPTDIVKPLIEILILDKVDFISCDRITFRTSTNYTTLHYVGNMVLNLTIRILFKVRMVDSQSGMWIFRSELYKKMKNLGYGMSFSQNIKIEAVRHGVFIEIPIRYGVRITKPKLKTWHDGFHNLFALFIKRVSELEHHHHHH | not failed
MSIQMATSNDLEWINNQYDSIGFVRSDLKRDKVAIITYNNEYAGIGRLVQIDEDTLEMGGILILPKFRGLQLAGELVSFLVETAKKLQVQHVYCLPFEELENFYKKYGYTEVDTTKEFVHPIILEKYNWCLDHYEKHVLLFKL | failed
MSIRIDRQRCIGCGKCAEICPGNLIVIDEDKKAFVRDPRDCWGCAACVKECKFSAIRYFLGAEIGGNGTTMYVEKENDEIMYWYFEKPSGEKEMIVQNLKDNTTYLEHHHHHH | failed
MSIRIKLFLAFLLTTFVVVMGMHFFTRWSLEKGFTEFIEKRQQERLDKIIDVLEEHYAEHRGWGELAGNKQHWISLLWHAGPHRHRPPKWIIEQAQHEPDRQWPPAVTPGTAERKWSPFELRVILLDADRSILFGRKELISQLSLHPVQYEHRTVGFLGLLPGNPVSQASDIYFMEQQADFFFWIALTMVVLSALIAWLMAYHLGRPLKQIAAVVQRLATGDYKARLPVISKDEMGQLALNFNDTAAALEQAEQSRRRWVADISHELRTPLAVLRGELEAILDGVHPLTPAAIESLSGDVLRLNRLTEDLYQLALSDQGALSYRKVLLDPVPLLREDLATFTTDFNHKQISVRWINRLFKPVLVNADPDRLSQLFRNLLTNSLNHTDARGQLEITVQRLADKLVIELADSSPGVSDQDIAHLFDRFYRVDHSRNRHLGGAGLGLAICSNIVRAHEGTLMASHSALGGLAIHIELPITP | failed
MSIRLAQVTDIPVLKELLNQIFQVHQTVRPDLFKNTDKGSKYSETELKELLQDESKPIFVYTDGKNRVLGHLFLVIKETKGSSVSKPLKTLFIDDLCVSKEARGQKIGQELFEFALKYAKKLGCYDLTLNVWNDNKGALAFYERQGLKARETKMEKILLEHHHHHH | not failed
MSIRLTNISKKFGQFQALSPLNLDIQEGEMIGLLGPSGSGKTTLLRIIAGLEGADSGHIHFGNRDVTQVHVRDRRVGFVFQNYALFRHMTVADNVAFGLEVIPKKQRPSAAEIQKRVSHLLEMVQLGHLAQRYPEQLSGGQKQRIALARALATQPEVLLLDEPFGALDAKVRKELRRWLRSLHDELKFTSVFVTHDQDEALELSDRVVVMSNGNIEQVNTPIELYAQPNSRFVFDFLGNVNRFEANWQQNRWTNGDAFIVPPEQTPLQQNGALYVRSHELALADKPNSQAHIPFTIVAITPIGAEVRVELAPIGWQSEELWEAKFTHHHLQELGLQKGSVVYATPRTGYFFGKQGDGSPIRQSWPFLPPGSLAFDI | failed
MSISRRDFNKLLLAGAAGSAFGLFGSGNTAFAARKRVVVIGGGFGGAATAKYLKKLDPTLAVTLIEPKPAFVTCPFSNWVLGGLRTMKDITHTYTALRTRHGVNVIADRVVSVDAAKGTLRLAGGRVIGYDRLVVSPGIDFKYDTIPGYSQKIAKSKMPHAWQAGPQTILLHRQLQAMKNGGTVVICPPDNPFRCPPGPYERASLIAYYLKQHKPKSKIVILDAKEKFSKQGLFTKGWESRYPGMIELRGSTGGGKVLGVDAKAMTVETDLGAVKGDVINVIPAQKAGKIAFEAGLTNEKGWCPVNPSSFESTIHQGIHVIGDACIAGAMPKSGFAASSQGKVAAVAIINLLRGQEPAPPSLVNTCYSLIGPKYGVSVAGVYQLSPTGIVEIPGSGGRLRPMPATNSWNRRRFSPKAGTPISARISGDKPLDSCGVPAVNHQAPLPLTHKATPDCRKR | failed
MSITLLTGIGEIFLGILLNVFIGKIVKIVFKKDGTLPRVPVRFIGITLILNGVGNMVHL | failed
MSKDLLFWLTILLVLISGYLSYRKKRIESLTTAGLAGGFALSFMLYEKFPVLFSFLLGFIATFAFEWTRKR | failed

Reference: a protein production outcome set (Wang et al. 2014)
